Tests used:
LK2 cells = experiment: In vitro ADC assay, LK2 cells; type: cell-based, human; details: 144 hours; LK2 hardly express GPC1
Description: Preparation of a conjugate of mouse anti-Glypican-1 mAb (01a033), mouse IgG2a (biolegend #400224) as a control, and mc-vc-PAB-MMAF was commissioned to MORADEC. An anticancer agent was conjugated to a cysteine residue via a cleavable linker. The DAR (drug-antibody ratio) was as follows. GPC1-CL-MMAF DAR=3.8, mouse IgG2a-CL-MMAF DAR=4.1.
(1) The cells were seeded on Thermo Fisher Scientific's 96-well white plate (model no.: 136101) (90 μl cell suspension). RPMI1640+10% FBS+100 U/ml penicillin+100 μg/ml streptomycin was used as the medium. The cells were seeded in 60 wells, and 100 μL of medium was added to 36 wells, and cultured in a 5% CO2 incubator at 37° C. (2) The next day, 10 μL of ADC was added to the cells (total amount: 100 μL). (3) After 144 hours of culture, a CellTiter-Glo™ Luminescence Cell Viability Assay reagent (Promega) was added and mixed at 100 μL/well. (4) Measurements were taken with a plate reader. (5) Analysis was conducted with GraphPad Prism 6.
The IC50 values were calculated from the following equation (Hossain M M, Hosono-Fukao T, Tang R, Sugaya N, van Kuppevelt T H, Jenniskens G J, Kimata K, Rosen S D, Uchimura K (2010) Direct detection of HSulf-1 and HSulf-2 activities on extracellular heparan sulphate and their inhibition by PI-88. Glycobiology 20(2): 175-186.)
IC50=10^(Log [A][B]×(50−C)/(D−C)+Log [B]) […]

pancreatic cancer PDX = experiment: In vivo efficacy test on GPC1 ADC using pancreatic cancer PDX in NOG mice; set-up: species or system mouse; details: 1, 3, 10 mg/kg iv day 0, 4, 8, 12
Text: Pancreatic cancer PDX (Patient-derived tumor xenograft) refers to residual tissue from pathological analysis of cancer tissue upon pancreatic cancer surgery from a pancreatic cancer patient. This Example used a pancreatic cancer model created by subcutaneously grafting in superimmunodeficient mice such as NOG mice. While human tumor hardly survives in SCID mice after grafting, NOG mice have more severe immunodeficiency than SCID mouse, so that human tumor is more likely to survive. For this reason, a PDX model has an environment that is closer to human tumor than a mouse model to which a cell strain is grafted. Thus, information obtained with a PDX model is useful in evaluating drug efficacy.
FIG. 24 schematically depicts the test in this Example. Specifically, pancreatic cancer PDX was subcutaneously grafted into 6 week old female NOG mice. […] The tumor volume and body weight were measured on day 0, day 4, day 8, day 12, day 16, day 20, day 24, and day 28.

B1: GPC1 ADC (conjugate)
heavy: QVQLKQSGPELVKPGASVKISCKASGYSFTGYYMHWVKQSPEKSLEWIGEINPSTGDTTYNQKFKAKATLTVDKSSSTAYMQLKSLTSEDSAVYYCAREKRDDGVFAYWGQGTLVTVSSAKTTAPSVYPLAPVCGDTTGSSVTLGCLVKGYFPEPVTLTWNSGSLSSGVHTFPAVLQSDLYTLSSSVTVTSSTWPSQSITCNVAHPASSTKVDKKIEPRGPTIKPCPPCKCPAPNLLGGPSVFIFPPKIKDVLMISLSPIVTCVVVDVSEDDPDVQISWFVNNVEVHTAQTQTHREDYNSTLRVVSALPIQHQDWMSGKEFKCKVNNKDLPAPIERTISKPKGSVRAPQVYVLPPPEEEMTKKQVTLTCMVTDFMPEDIYVEWTNNGKTELNYKNTEPVLDSDGSYFMYSKLRVEKKNWVERNSYSCSVVHEGLHNHHTTKSFSRTPGK
light: DIVMSQSPKSMSMSVGERVALSCKASENVGTYVSWYQQKPEQSPKLLIYGASNRYTGVPDRFTGSGSATDFTLTISSVQAEDLADYYCGQSYSYPLTFGAGTKLELKRADAAPTVSIFPPSSEQLTSGGASVVCFLNNFYPKDINVKWKIDGSERQNGVLNSWTDQDSKDSTYSMSSTLTLTKDEYERHNSYTCEATHKTSTSPIVKSFNRNEC
antitumor effect against LK2 cells (LK2 cells): hardly exhibited | antitumor effect (tumor volume, tumor weight day 28) (pancreatic cancer PDX): exhibited an antitumor effect

— patent US20200308299A1, “ANTI-GPC-1 ANTIBODY” (National University Corporation Kochi University, priority 2017, published 2020)
